Assay results published in the supplement of paper PMC10567573.

B1: SNAP91 (parent)
chain: FGGSFMAPSPSPVTPAQNNLLQPN
B2: IRX6 (parent)
chain: YPCLEKPRIWSLAHTATASAVEGA

Variants of: B1
Assay: protein stability index of a GFP-peptide fusion (GPS, HEK-293T) (PSI 1-6); higher = more stable
Details: c terminus: a fixed tail appended
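Note: lentivirally expressed fusions sorted by FACS into six bins by GFP to DsRed ratio, PSI derived from sequencing read proportions per bin multiplied by bin number.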

Protein stability index of substitutions, site by site:
P8: E 2.24 | R 1.85 | M 4.32 | H 2 | G 2.67 | D 2.25 | F 2.53 | Q 2.92 | Y 3.9 | N 2.42 | T 3.12 | A 1.54 | S 2.89 | W 3.12 | L 3.22 | V 2.41 | C 1.64
M6: V 2.08 | R 2.24
S9: E 1.89 | W 3.59 | M 2.31 | R 1.89 | Q 1.43 | K 1.76 | V 1.62
G3: N 3.1 | D 2.7 | T 2.44 | V 2.37
S11: K 1.98 | E 2.38 | L 2.84
A7: D 1.91 | V 2.54 | H 3 | E 2.06 | Q 2.59 | L 1.87
G2: R 3.23 | Y 2.53
P10: W 2.51 | H 2.52 | R 1.13 | F 2.89 | C 2.45 | D 2.72 | M 3.19 | L 2.55 | S 2.49 | G 2.18 | N 1.51 | K 3.1 | E 1.22 | A 4.52 | V 1.58 | Q 2.7 | Y 2.38
F5: A 3.83 | I 4.03
F1: N 3.94 | I 3.99

Variants of: B2
Assay: as above
Details: c terminus: a fixed tail appended

Protein stability index, by site and new letter:
R8: N 3.06 | M 2.79 | C 3.13 | P 2.2 | L 3.04 | V 2.48 | Y 2.17 | I 2.87 | E 2.22
L4: V 2.07 | S 1.81 | Y 2.53 | A 4.55 | W 2.68 | F 2.58 | M 4.4 | I 2.46 | E 2.64
A20: D 2.67 | T 2.11 | I 2.52 | L 3.52 | M 1.53 | H 3.49
H14: S 2.18 | I 1.41 | Q 2.52 | P 2.48 | K 1.66 | M 2.34 | V 3.43 | L 3.94 | F 4.18 | D 2.01
Y1: V 3.89 | E 4.33 | K 3.73 | P 4.08 | L 3.59 | N 3.84 | H 2.54 | M 3.83 | Q 3.79 | C 2.82 | T 3.36 | A 4.1 | F 1.86
G23: F 2.97 | E 2.33 | L 2.7 | Q 1.25 | S 2.13 | I 3.44 | C 1.41 | N 2.68 | T 2.95 | V 3.24 | Y 3.63
T15: C 3.17 | K 3.51 | H 3.31 | L 1.12 | A 2.74 | S 2.26 | D 2.85
I9: P 2.35 | Q 2.28 | K 2.46 | V 3.31 | G 2.2 | C 1.98 | E 3.59 | D 3.49 | L 2.98 | N 2.48 | H 1.25 | T 1.51 | F 2.3 | S 1.65 | Y 2.3 | M 3.85
A24: R 2.99 | V 3.01 | M 2.52 | D 2.95 | I 3.09 | H 3.03 | W 2.31 | E 2.22 | Y 3.06 | S 1.91
E5: L 3.24 | T 3.97 | Y 2.68 | S 2.98 | A 1.95 | C 3.7 | H 2.37 | G 3.15 | Q 3.22 | V 4.3 | F 3.7 | R 3.21 | P 2.63 | N 2.34 | W 1.9 | D 2.81 | K 2.92
V21: N 2.73 | P 3.82 | S 1.6 | C 1.23 | W 3.41 | K 1.45 | Y 2.29 | F 3.51 | D 1.82 | R 2.62 | T 2.23
T17: S 1.83 | N 2.37 | E 3.16 | M 2.36 | L 1.25 | Q 4.21 | D 2.17 | G 3.55 | K 2 | W 2.29 | P 2.72
C3: L 1.86 | N 1.37 | F 3.06 | Y 1.54 | M 2.28 | A 1.96 | R 2.76 | P 2.12 | W 1.68 | D 1.58 | K 3.76 | I 1.74 | Q 2.14
S11: I 2.48 | Y 2.16 | H 1.86 | A 1.3 | F 1.94 | Q 1.53 | N 2.31 | R 2.05 | M 1.82
A13: T 1.96 | Y 3.33 | D 2.71 | I 3.27 | P 2.35 | K 2.9 | E 2.17 | G 2.44 | M 1.35 | V 3.26
L12: R 2.19 | M 2.36 | E 1.7 | T 2.72 | F 2.26 | Q 2.87 | N 1.72 | I 2.81 | C 3.12 | D 2.91 | K 2.72
A16: M 3.88 | Q 2.45 | V 4.23 | K 2.68 | E 4.29 | L 1.87 | H 1.77 | D 1.89 | C 2.12 | F 5.06 | Y 2.99 | I 1.94 | T 3.04 | N 3.02 | W 3.44
W10: L 3.78 | A 4.14 | G 4 | V 3.85 | S 4.42 | P 4.3 | R 4.26 | I 3.27 | F 1.98 | D 4.13 | M 3.65 | N 4.27 | C 3.19 | H 4.23 | Q 4.16
P7: A 3.29 | E 2.27 | H 2.44 | Q 2.32 | C 2.69 | Y 2.59 | T 3.24 | G 2.84
K6: W 2.69 | V 2.61 | H 1.79 | S 3.68 | P 2.1 | N 1.48 | L 1.2 | M 2.41 | I 1.59 | G 2.34 | R 1.88 | F 2.54
P2: N 4.81 | I 2.96 | M 3.06 | W 3.12 | F 2.41 | T 3.4 | G 3.7 | R 2.37 | Q 2.98 | Y 2.69 | L 1.88 | K 2.82 | H 2.9 | V 2.51 | A 2.82 | E 2.29
A18: Y 3 | K 2.59 | H 2.15 | N 2.65 | P 3.41 | M 3.02 | I 3.17 | W 2.05 | T 3.02 | V 2.84
S19: E 1.97 | R 1.91 | K 1.9 | I 2.52 | M 2.98 | F 3.32 | V 2.07 | Q 3.07 | D 1.83 | N 2.27
E22: T 2.63 | F 3.04 | S 1.1 | R 2.98 | P 2.34 | N 3.13 | H 2.05 | D 2.16 | C 3.29 | L 2.67 | W 1.73 | K 2.29 | G 3.1
